Measured values reported in US7354588B1, “Functional derivatives of ICAM-1 with altered ability to bind LFA-1 or HRV” (Dana Farber Cancer Institute, priority 1987, dated 2008).
Where a chain is given by its changes, count along the chain named. *1 amine or outer side, *2 acyl side, *3 side chain or, on linkers, in order; H or OH if unused. Where a SMILES comes first, the peptide text is derived from it. Bridges are numbered along the chain shown (N, C = ends). Roman numbers before positions name the chains, in order. [ ]: non-standard residue; d: D form. Actinocin(9to1) = Cc1c2oc3c(C)ccc(C(=O)[*:1])c3nc-2c(C(=O)[*:2])c(N)c1=O; NMeV = CN[C@H](C(=O)O)C(C)C; Sar = CNCC(=O)O

B1: rIL-1 alpha: recombinant IL-1 alpha (protein, UniProt P01583 113-271, looked up)
Interleukin-1 alpha: SAPFSFLSNVKYNFMRIIKYEFILNDALNQSIIRANDQYLTAAALHNLDEAVKFDMGAYKSSKDDAKITVILRISKTQLYVTAQDEDQPVLLKEMPEIPKTITGSETNLLFFWETHGTKNYFTSVAHPNLFIATKQDYWVCLAGGPPSITDFQILENQA
B2: D213GL/HGV (protein, UniProt P05362 28-532, looked up, variant D213H L215V)
Intercellular adhesion …: QTSVSPSKVILPRGGSVLVTCSTSCDQPKLLGIETPLPKKELLLPGNNRKVYELSNVQEDSQPMCYSNCPDGQSTAKTFLTVYWTPERVELAPLPSWQPVGKNLTLRCQVEGGAPRANLTVVLLRGEKELKREPAVGEPAEVTTTVLVRRDHHGANFSCRTELDLRPQGLELFENTSAPYQLQTFVLPATPPQLVSPRVLEVDTQGTVVCSLHGVFPVSEAQVHLALGDQRLNPTVTYGNDSFSAKASVSVTAEDEGTQRLTCAVILGNQSQETLQTVTIYSFPAPNVILTKPEVSEGTEVTVKCEAHPRAKVTLNGVPAQPLGPRAQLLLKATPEDNGRSFSCSATLEVAGQLIHKNQTRELRVLYGPRLDERDCPGNWTWPENSQQTPMCQAWGNPLPELKCLKDGTFPLPIGESVTVTRDLEGTYLCRARSTQGEVTRKVTVNVLSPRYEIVIITVVAAAVIMGTAGLSTYLYNRQRKIKKYRLQQAQKGTPMKPNTQATPP
B3: N240DS/KNA (protein, UniProt P05362 28-532, looked up, variant N240K D241N S242A)
Intercellular adhesion …: B2 Intercellular adhesion … with H213D, V215L, N240K, D241N, S242A
B4: D229QR/HLE (protein, UniProt P05362 28-532, looked up, variant D229H Q230L R231E)
Intercellular adhesion …: B2 Intercellular adhesion … with H213D, V215L, D229H, Q230L, R231E
B5: E254DE/KEK (protein, UniProt P05362 28-532, looked up, variant E254K D255E E256K)
Intercellular adhesion …: B2 Intercellular adhesion … with H213D, V215L, E254K, D255E, E256K

How the values were obtained:
[1] = system: ICAM-1 expression on human dermal fibroblasts; test: ^125I goat anti-mouse IgG binding assay, anti-ICAM-1, dermal fibroblasts; assay type: cell-based
Method: (§1) The kinetics of interleukin 1 and gamma interferon effects on ICAM-1 expression on dermal fibroblasts were determined using the ^125I goat anti-mouse IgG binding assay of Dustin, M. L. et al. (J. Immunol. 137:245-254 (1986); which reference is herein incorporated by reference). To perform this binding assay, human dermal fibroblasts were grown in a 96-well microtiter plate to a density of 2−8×10^4 cells/well (0.32 cm^2). The cells were washed twice with RPMI 1640 medium supplemented as described in Example 1. The cells were additionally washed once with Hanks Balanced Salt Solution (HBSS), 10 mM HEPES, 0.05% NaN3 and 10% heat-inactivated fetal bovine serum. Washing with this binding buffer was done at 4° C. To each well was added 50 μl of the above-described binding buffer and 50 μl of the appropriate hybridoma supernatant with X63 and W6/32 as the negative and positive controls, respectively. After incubation for 30 minutes at 4° C., with gentle agitation, the wells were washed twice with binding buffer, and the second antibody ^125I-goat anti-mouse IgG, was added at 50 nCi in 100 μl. The ^125I-goat anti-mouse antibody was prepared by using Iodogen (Pierce) according to the method of Fraker, P. J. et al. (Biochem. Biophys. Res. Commun. 80:849 (1978)). After 30 minutes at 4° C., the wells were washed twice with 200 μl of binding buffer and the cell layer was solubilized by adding 100 μl of 0.1 N NaOH. This and a 100 μl wash were counted in a Beckman 5500 gamma counter. The specific counts per minute bound was calculated as [cpm with monoclonal antibody]-[cpm with X63]. All steps, including induction with specific reagents, were carried out in quadruplicate.

[2] = system: ICAM-1 expression on human saphenous vein endothelial cells (HSVEC); test: Radioimmune assay of ICAM-1 expression with ^125I RR1/1, HSVEC; assay type: cell-based; settings: for ^125I Specifically bound (CPM), HSVEC / fold of control ICAM-1 expression, HSVEC: 16 hr; for ^125I Specifically bound (CPM), HSVEC: rIL-1 beta 100 ng/ml, rTNF alpha 50 ng/ml, LPS 10 μg/ml, rIFN gamma 10 ng/ml, control 1132 ± 31; for fold of control ICAM-1 expression, HSVEC: same concentrations as CPM; for increase of ICAM-1 expression on HSVEC: IL-1 beta 100 ng/ml, rTNF 50 ng/ml, Interferon-gamma 10,000 U/ml
Method: (§2) In order to measure ICAM-1 expression, a radioimmune assay was developed. In this assay, purified RR1/1 was iodinated using iodogen to a specific activity of 10 μCi/μg. Endothelial cells were grown in 96 well plates and treated as described for each experiment. The plates were cooled at 4° C. by placing in a cold room for 0.5-1 hr, not immediately on ice. The monolayers were washed 3× with cold complete media and then incubated 30 m at 4° C. with ^125I RR1/1. The monolayers were then washed 3× with complete media. The bound 125, was released using 0.1 N NaOH and counted. The specific activity of the ^125I RR1/1 was adjusted using unlabeled RR1/1 to obtain a linear signal over the range of antigen densities encountered in this study. Non-specific binding was determined in the presence of a thousand fold excess of unlabeled RR1/1 and was subtracted from total binding to yield the specific binding.
(§3) Upregulation of ICAM-1 expression on HVEC and HSVEC-HUVEC or HSVEC were seeded into 96 well plates at 1:3 from a confluent monolayer and allowed to grow to confluence. Cells were then treated with the indicated materials or media for 16 hr and the RIA done as in methods. All points were done in quadruplicate.

[3] = system: ICAM-1 expression on human umbilical vein endothelial cells (HUVEC); test: Radioimmune assay of ICAM-1 expression with ^125I RR1/1, HUVEC; assay type: cell-based; settings: for ^125I Specifically bound (CPM), HUVEC / fold of control ICAM-1 expression, HUVEC: 16 hr; for ^125I Specifically bound (CPM), HUVEC: rIL-1 beta 100 ng/ml, rIL-1 alpha 50 ng/ml, rTNF alpha 50 ng/ml, LPS 10 μg/ml, rIFN gamma 10 ng/ml, polymyxin B 10 μg/ml, control 603 ± 11; for fold of control ICAM-1 expression, HUVEC: same concentrations as CPM; for increase of ICAM-1 expression on HUVEC: IL-1 beta 100 ng/ml, rTNF 50 ng/ml, Interferon-gamma 10,000 U/ml
Method: as §2, §3

[4] = system: HLA-A,B,C expression on human dermal fibroblasts; test: ^125I goat anti-mouse IgG binding assay, anti-HLA-A,B,C, dermal fibroblasts; assay type: cell-based
Method: as §1

RR1/1 mAb = test: Indirect immunofluorescence flow cytofluorometry: mAb RR1/1 binding to COS cells expressing ICAM-1 mutants (SLFI, % CL203); assay type: cell-based; settings: SLFI normalized to CL203 SLFI of the mutant
In short: (§4)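 Transfected COS cells expressing ICAM-1 point mutants were stained by indirect immunofluorescence and analysed by flow cytometry. Specific linear fluorescence intensity of CL203 is expressed relative to wild-type CL203; RR1/1, R6.5 and LB-2 SLFI are expressed relative to CL203 SLFI of the same mutant.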

LB-2 mAb = test: Indirect immunofluorescence flow cytofluorometry: mAb LB-2 binding to COS cells expressing ICAM-1 mutants (SLFI, % CL203); assay type: cell-based; settings: SLFI normalized to CL203 SLFI of the mutant
In short: as §4

CL203 mAb = test: Indirect immunofluorescence flow cytofluorometry: mAb CL203 binding to COS cells expressing ICAM-1 mutants (SLFI, % WT); assay type: cell-based; settings: SLFI of CL203 for mutant normalized to wild type CL203 SLFI; level of expression
In short: as §4

LFA-1 = biological target: T1, LFA-1 (Homo sapiens, UniProt P05107+P20701); test: Adherence of COS cells expressing ICAM-1 or ICAM-1 mutants to plastic-bound purified LFA-1; assay type: cell-based; settings: COS cells expressing ICAM-1 mutant adhering to LFA-1 coated plastic; normalized for percent of cells expressing mutant and for wild type binding; mean
T1 construct: endogenous in cells

R6.5 mAb = test: Indirect immunofluorescence flow cytofluorometry: mAb R6.5 binding to COS cells expressing ICAM-1 mutants (SLFI, % CL203); assay type: cell-based; settings: SLFI normalized to CL203 SLFI of the mutant
In short: as §4

HRV14 = test: Binding of [^35S]-Met labeled HRV14 to COS cells expressing ICAM-1 mutants; assay type: cell-based, human rhinovirus 14; settings: 35S met-labeled HRV14 binding to COS cells expressing ICAM-1 mutant; normalized for percent of cells expressing mutant and for wild type binding; mean
[5] = cycloheximide 20 μg/ml, actinomycin D 10 μM
[6] = cells treated with IFN-γ (10 U/ml) (18 hr), alone or plus the inhibitor named (cycloheximide 20 μg/ml, actinomycin D 10 μM)
[7] = cells treated with IFN-γ (10 U/ml) (18 hr), alone or plus the inhibitor named

T1 sequence (P20701 26-1170): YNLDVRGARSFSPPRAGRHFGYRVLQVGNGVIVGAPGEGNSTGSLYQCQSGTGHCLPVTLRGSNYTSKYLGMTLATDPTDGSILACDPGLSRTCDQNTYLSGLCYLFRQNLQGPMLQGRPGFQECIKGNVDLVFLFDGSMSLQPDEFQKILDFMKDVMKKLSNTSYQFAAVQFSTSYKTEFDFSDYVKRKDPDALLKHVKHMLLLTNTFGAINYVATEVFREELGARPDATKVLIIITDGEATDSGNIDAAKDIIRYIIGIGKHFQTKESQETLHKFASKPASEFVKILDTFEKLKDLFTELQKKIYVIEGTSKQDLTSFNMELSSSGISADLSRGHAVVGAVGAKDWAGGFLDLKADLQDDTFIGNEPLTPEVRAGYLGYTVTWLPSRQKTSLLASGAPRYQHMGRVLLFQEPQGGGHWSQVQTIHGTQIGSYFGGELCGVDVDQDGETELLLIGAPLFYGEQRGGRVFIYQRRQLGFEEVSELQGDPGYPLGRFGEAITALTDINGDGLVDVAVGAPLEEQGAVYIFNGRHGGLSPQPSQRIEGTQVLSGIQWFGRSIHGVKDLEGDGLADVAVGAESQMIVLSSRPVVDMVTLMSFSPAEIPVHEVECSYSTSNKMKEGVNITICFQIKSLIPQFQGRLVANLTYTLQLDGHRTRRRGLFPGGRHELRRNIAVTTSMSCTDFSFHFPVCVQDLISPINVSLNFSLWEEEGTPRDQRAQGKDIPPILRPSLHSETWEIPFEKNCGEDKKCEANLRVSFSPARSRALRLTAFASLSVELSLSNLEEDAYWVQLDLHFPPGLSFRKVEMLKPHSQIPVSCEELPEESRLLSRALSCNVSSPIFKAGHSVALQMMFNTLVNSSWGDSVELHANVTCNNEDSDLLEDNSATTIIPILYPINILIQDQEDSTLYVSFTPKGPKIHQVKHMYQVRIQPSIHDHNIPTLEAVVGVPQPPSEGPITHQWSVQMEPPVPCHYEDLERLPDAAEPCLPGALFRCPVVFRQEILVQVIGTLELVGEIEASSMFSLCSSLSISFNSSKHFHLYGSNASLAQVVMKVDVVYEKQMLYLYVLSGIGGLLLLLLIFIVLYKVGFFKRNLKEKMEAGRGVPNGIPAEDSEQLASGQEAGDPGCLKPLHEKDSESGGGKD
T1 sequence (P05107 23-769): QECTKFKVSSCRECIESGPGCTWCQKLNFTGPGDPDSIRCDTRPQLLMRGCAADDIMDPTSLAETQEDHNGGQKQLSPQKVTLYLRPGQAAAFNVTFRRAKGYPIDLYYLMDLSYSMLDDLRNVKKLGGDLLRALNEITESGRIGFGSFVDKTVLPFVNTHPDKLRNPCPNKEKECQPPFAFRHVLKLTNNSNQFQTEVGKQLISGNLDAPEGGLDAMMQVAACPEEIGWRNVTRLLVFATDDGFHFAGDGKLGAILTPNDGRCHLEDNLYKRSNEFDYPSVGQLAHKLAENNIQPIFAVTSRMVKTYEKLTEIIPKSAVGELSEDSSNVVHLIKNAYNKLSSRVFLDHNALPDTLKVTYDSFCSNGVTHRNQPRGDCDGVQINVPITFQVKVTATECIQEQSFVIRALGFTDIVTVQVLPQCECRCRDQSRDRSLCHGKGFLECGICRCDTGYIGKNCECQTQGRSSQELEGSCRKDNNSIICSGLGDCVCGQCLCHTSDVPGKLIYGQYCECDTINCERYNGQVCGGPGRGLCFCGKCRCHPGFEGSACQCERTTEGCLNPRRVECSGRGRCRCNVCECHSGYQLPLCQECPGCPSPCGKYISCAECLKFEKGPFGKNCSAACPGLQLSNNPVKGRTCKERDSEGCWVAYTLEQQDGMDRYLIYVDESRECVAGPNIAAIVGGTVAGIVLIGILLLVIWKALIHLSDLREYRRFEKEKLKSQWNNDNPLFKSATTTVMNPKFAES

Row | Molecule | ^125I Specifically bound (CPM), HUVEC [3] [CPM] | fold of control ICAM-1 expression, HUVEC [3] [x] | SLFI (% CL203) RR/1 (RR1/1 mAb) [% CL203] | SLFI (% CL203) LB-2 (LB-2 mAb) [% CL203] | Cl203 % WT (SLFI) (CL203 mAb) [% WT] | LFA-1 Binding % (LFA-1) [%] | SLFI (% CL203) R6.5 (R6.5 mAb) [% CL203] | HRV Binding % (HRV14) [%] | other results
1 | Cc1c2oc3c(C)ccc(C(=O)N[C@@H]4C(=O)N[C@H](C(C)C)C(=O)N5CCC[C@H]5C(=O)N(C)CC(=O)N(C)[C@@H](C(C)C)C(=O)O[C@@H]4C)c3nc-2c(C(=O)N[C@@H]2C(=O)N[C@H](C(C)C)C(=O)N3CCC[C@H]3C(=O)N(C)CC(=O)N(C)[C@@H](C(C)C)C(=O)O[C@@H]2C)c(N)c1=O [actinomycin D] (I: T[dV]P[Sar][NMeV] / II: T[dV]P[Sar][NMeV]; ester I:1-I:C, II:1-II:C; linker I:N-II:N via Actinocin(9to1)) | – | – | – | – | – | – | – | – | effect on interleukin 1 and gamma interferon induced ICAM-1 expression on fibroblasts [1, 5]: abolish the effects
2 | rIL-1 beta: recombinant IL-1 beta | 5680 ± 633 | 9 | – | – | – | – | – | – | ^125I Specifically bound (CPM), HSVEC [2]: 8320 ± 766 CPM; fold of control ICAM-1 expression, HSVEC [2]: 7.3x; increase of ICAM-1 expression on HSVEC [2]: 7.3 fold; increase of ICAM-1 expression on HUVEC [3]: 9 fold; half-maximal increase of ICAM-1 expression ([3]; endothelial cells (HUVEC and HSVEC)): 15 ng/mL
3 | rIFN gamma: recombinant gamma interferon | 3120 ± 308 | 5.2 | – | – | – | – | – | – | ^125I Goat Anti-Mouse IgG Specifically Bound (cpm), anti-ICAM-1 [1, 6]: 4659 ± 109 cpm; half-life for ICAM-1 induction ([1]; human dermal fibroblasts, 10 U/ml): 3.75 h; ^125I Goat Anti-Mouse IgG Specifically Bound (cpm), anti-HLA-A,B,C [4, 7]: 23675 ± 500 cpm; ^125I Specifically bound (CPM), HSVEC [2]: 4002 ± 664 CPM; fold of control ICAM-1 expression, HSVEC [2]: 3.5x; increase of ICAM-1 expression on HSVEC [2]: 3.5 fold; increase of ICAM-1 expression on HUVEC [3]: 5.2 fold
4 | cycloheximide | – | – | – | – | – | – | – | – | ^125I Goat Anti-Mouse IgG Specifically Bound (cpm), anti-ICAM-1 [1, 6]: 1461 ± 59 cpm; ^125I Goat Anti-Mouse IgG Specifically Bound (cpm), anti-ICAM-1 ([1]; cells treated with IL 1 (10 U/ml) (4 hr), alone or plus the inhibitor named (cycloheximide 20 μg/ml, actinomycin D 10 μM, tunicamycin 2 μg/ml)): 1619 ± 381 cpm; effect on interleukin 1 and gamma interferon induced ICAM-1 expression on fibroblasts [1, 5]: abolish the effects; ^125I Goat Anti-Mouse IgG Specifically Bound (cpm), anti-ICAM-1 ([1]; no cytokine, Control (4 hr) 1524 ± 140, cycloheximide 20 μg/ml, actinomycin D 10 μM, tunicamycin 2 μg/ml, mean ± SD): 1513 ± 210 cpm; ^125I Goat Anti-Mouse IgG Specifically Bound (cpm), anti-HLA-A,B,C [4, 7]: 10675 ± 800 cpm; ^125I Goat Anti-Mouse IgG Specifically Bound (cpm), anti-HLA-A,B,C ([4]; cells treated with IL 1 (10 U/ml) (4 hr), alone or plus the inhibitor named): 12676 ± 446 cpm; ^125I Goat Anti-Mouse IgG Specifically Bound (cpm), anti-HLA-A,B,C ([4]; no cytokine, Control (4 hr) 11928 ± 600, cycloheximide 20 μg/ml, actinomycin D 10 μM, tunicamycin 2 μg/ml, mean ± SD): 10678 ± 471 cpm
5 | B1 | 9910 ± 538 | 16 | – | – | – | – | – | – | –
6 | B2 | – | – | 231 | 107 | 128 | 90 | 175 | 99 | –
7 | B3 | – | – | 113 | 132 | 142 | 147 | 125 | 82 | –
8 | B4 | – | – | 94 | 100 | 210 | 90 | 92 | 106 | –
9 | B5 | – | – | 178 | 81 | 180 | 122 | 129 | 99 | –
